Experimental data: the supplement of paper PMC11246515
± gives the standard deviation of the averaged measurements.

Experiment: total protein half-life in vivo (active degradation + dilution); higher = more stable protein
[1] = E. coli NCM3722 delta-clpP delta-lon delta-hslV, growth: N-lim chemostat, doubling time 6 h
[2] = E. coli NCM3722 delta-hslV, growth: N-lim chemostat, doubling time 6 h
[3] = E. coli NCM3722 delta-smpB, growth: N-lim chemostat, doubling time 6 h
[4] = wild type E. coli NCM3722, growth: C-lim chemostat, doubling time 3 h
[5] = wild type E. coli NCM3722, growth: C-lim chemostat, doubling time 6 h
[6] = wild type E. coli NCM3722, growth: C-lim chemostat, doubling time 12 h
[7] = wild type E. coli NCM3722, growth: N-lim chemostat, doubling time 6 h
[8] = wild type E. coli NCM3722, growth: N-lim chemostat, doubling time 12 h
[9] = wild type E. coli NCM3722, growth: P-lim chemostat, doubling time 6 h
[10] = wild type E. coli NCM3722, growth: P-lim chemostat, doubling time 12 h
[11] = E. coli NCM3722 delta-clpP, growth: N-lim chemostat, doubling time 6 h
[12] = E. coli NCM3722 delta-lon, growth: N-lim chemostat, doubling time 6 h

Sequence	total protein half-life in vivo [1] [h]	total protein half-life in vivo [2] [h]	total protein half-life in vivo [3] [h]	total protein half-life in vivo [4] [h]	total protein half-life in vivo [5] [h]	total protein half-life in vivo [6] [h]	total protein half-life in vivo [7] [h]	total protein half-life in vivo [8] [h]	total protein half-life in vivo [9] [h]	total protein half-life in vivo [10] [h]	total protein half-life in vivo [11] [h]	total protein half-life in vivo [12] [h]
MIKPTFLRRVAIAALLSGSCFSAAAAPPAPPVSYGVEEDVFHPVRAKQGMVASVDATATQVGVDILKEGGNAVDAAVAVGYALAVTHPQAGNLGGGGFMLIRSKNGNTTAIDFREMAPAKATRDMFLDDQGNPDSKKSLTSHLASGTPGTVAGFSLALDKYGTMPLNKVVQPAFKLARDGFIVNDALADDLKTYGSEVLPNHENSKAIFWKEGEPLKKGDTLVQANLAKSLEMIAENGPDEFYKGTIAEQIAQEMQKNGGLITKEDLAAYKAVERTPISGDYRGYQVYSMPPPSSGGIHIVQILNILENFDMKKYGFGSADAMQIMAEAEKYAYADRSEYLGDPDFVKVPWQALTNKAYAKSIADQIDINKAKPSSEIRPGKLAPYESNQTTHYSVVDKDGNAVAVTYTLNTTFGTGIVAGESGILLNNQMDDFSAKPGVPNVYGLVGGDANAVGPNKRPLSSMSPTIVVKDGKTWLVTGSPGGSRIITTVLQMVVNSIDYGLNVAEATNAPRFHHQWLPDELRVEKGFSPDTLKLLEAKGQKVALKEAMGSTQSIMVGPDGELYGASDPRSVDDLTAGY	6.01 ± 0.77	5.99 ± 0.16	6.24 ± 0.43	3.1 ± 0.34	5.9124 ± 0.0049	12.2 ± 2.3	6.219 ± 0.013	12.42 ± 0.05	5.73 ± 0.52	13.2 ± 1.1		
MIKRVLVVSMVGLSLVGCVNNDTLSGDVYTASEAKQVQNVSYGTIVNVRPVQIQGGDDSNVIGAIGGAVLGGFLGNTVGGGTGRSLATAAGAVAGGVAGQGVQSAMNKTQGVELEIRKDDGNTIMVVQKQGNTRFSPGQRVVLASNGSQVTVSPR [P0A905]	5.26 ± 0.26	6.11 ± 0.62	6.1 ± 0.32	2.899 ± 0.023	5.41 ± 0.79	9.39 ± 0.33	5.49 ± 0.094	11.5 ± 0.94	5.87 ± 0.41	11.5 ± 0.73	5.83 ± 0.096	6.23 ± 0.85
MIKSALLVLEDGTQFHGRAIGATGSAVGEVVFNTSMTGYQEILTDPSYSRQIVTLTYPHIGNVGTNDADEESSQVHAQGLVIRDLPLIASNFRNTEDLSSYLKRHNIVAIADIDTRKLTRLLREKGAQNGCIIAGDNPDAALALEKARAFPGLNGMDLAKEVTTAEAYSWTQGSWTLTGGLPEAKKEDELPFHVVAYDFGAKRNILRMLVDRGCRLTIVPAQTSAEDVLKMNPDGIFLSNGPGDPAPCDYAITAIQKFLETDIPVFGICLGHQLLALASGAKTVKMKFGHHGGNHPVKDVEKNVVMITAQNHGFAVDEATLPANLRVTHKSLFDGTLQGIHRTDKPAFSFQGHPEASPGPHDAAPLFDHFIELIEQYRKTAK [P0A6F1]	4.95 ± 1	4.72 ± 0.13	4.6318 ± 0.0031	3.18 ± 0.27		9.87 ± 0.035	4.466 ± 0.015	7.43 ± 0.44	5.95 ± 0.087	12.1 ± 0.28	4.51 ± 0.39	5.36 ± 0.35
MIKSKIVLLSALVSCALISGCKEENKTNVSIEFMHSSVEQERQAVISKLIARFEKENPGITVKQVPVEEDAYNTKVITLSRSGSLPEVIETSHDYAKVMDKEQLIDRKAVATVISNVGEGAFYDGVLRIVRTEDGSAWTGVPVSAWIGGIWYRKDVLAKAGLEEPKNWQQLLDVAQKLNDPANKKYGIALPTAESVLTEQSFSQFALSNQANVFNAEGKITLDTPEMMQALTYYRDLTANTMPGSNDIMEVKDAFMNGTAPMAIYSTYILPAVIKEGDPKNVGFVVPTEKNSAVYGMLTSLTITAGQKTEETEAAEKFVTFMEQADNIADWVMMSPGAALPVNKAVVTTATWKDNDVIKALGELPNQLIGELPNIQVFGAVGDKNFTRMGDVTGSGVVSSMVHNVTVGKADLSTTLQASQKKLDELIEQH	5.01			3	4.35 ± 1.8	13.3						
MIKWPWKVQESAHQTALPWQEALSIPLLTCLTEQEQSKLVTLAERFLQQKRLVPLQGFELDSLRSCRIALLFCLPVLELGLEWLDGFHEVLIYPAPFVVDDEWEDDIGLVHNQRIVQSGQSWQQGPIVLNWLDIQDSFDASGFNLIIHEVAHKLDTRNGDRASGVPFIPLREVAGWEHDLHAAMNNIQEEIELVGENAASIDAYAASDPAECFAVLSEYFFSAPELFAPRFPSLWQRFCQFYQQDPLQRLHHANDTDSFSATNVH	4.48 ± 0.42	1.36 ± 0.03	1.51 ± 0.037	1.16 ± 0.016	1.87 ± 0.28	2.19 ± 0.13	1.53	2.44 ± 0.53	1.76 ± 0.39	3.29 ± 0.75	3.08 ± 0.31	1.79 ± 0.075
MILERVEIVGFRGINRLSLMLEQNNVLIGENAWGKSSLLDALTLLLSPESDLYHFERDDFWFPPGDINGREHHLHIILTFRESLPGRHRVRRYRPLEACWTPCTDGYHRIFYRLEGESAEDGSVMTLRSFLDKDGHPIDVEDINDQARHLVRLMPVLRLRDARFMRRIRNGTVPNVPNVEVTARQLDFLARELSSHPQNLSDGQIRQGLSAMVQLLEHYFSEQGAGQARYRLMRRRASNEQRSWRYLDIINRMIDRPGGRSYRVILLGLFATLLQAKGTLRLDKDARPLLLIEDPETRLHPIMLSVAWHLLNLLPLQRIATTNSGELLSLTPVEHVCRLVRESSRVAAWRLGPSGLSTEDSRRISFHIRFNRPSSLFARCWLLVEGETETWVINELARQCGHHFDAEGIKVIEFAQSGLKPLVKFARRMGIEWHVLVDGDEAGKKYAATVRSLLNNDREAEREHLTALPALDMEHFMYRQGFSDVFHRMAQIPENVPMNLRKIISKAIHRSSKPDLAIEVAMEAGRRGVDSVPTLLKKMFSRVLWLARGRAD	6.44 ± 0.23										2.21	
MILFVGFLLMEIVMPQISRTALVPYSAEQMYQLVNDVQSYPQFLPGCTGSRILESTPGQMTAAVDVSKAGISKTFTTRNQLTSNQSILMNLVDGPFKKLIGGWKFTPLSQEACRIEFHLDFEFTNKLIELAFGRVFKELAANMVQAFTVRAKEVYSAR [P0AGL5]	0.854 ± 0.18	0.542	0.621 ± 0.022	0.306	0.545		0.714		0.372	1.13 ± 0.68	0.857	0.962
